Data published in paper PMC2779847.

What was measured:
[1] = target: MsDps2ΔN15 (MsDps2 lacking 15 amino acids from the N-terminus) (Mycobacterium smegmatis); experiment: native gel or EMSA; 10% native gel; BSA and ferritin as markers; oligomeric state of the purified protein
[2] = target: MsDps2 protein (second Dps homologue of Mycobacterium smegmatis) (Mycobacterium smegmatis); experiment: as above
[3] = target: MsDps2 protein (second Dps homologue of Mycobacterium smegmatis) (Mycobacterium smegmatis); experiment: negative-stain transmission electron microscopy; MsDps2 in 20 mM Tris, 200 mM NaCl on copper grids, stained with uranyl acetate, 80 kV, 50,000x

stoichiometry N [1]	stoichiometry N [2]	stoichiometry N [3]	Substance
12			MsDps2ΔN15 (MsDps2 lacking 15 amino acids from the N-terminus) (domain or fragment)
	12	12	MsDps2 protein (second Dps homologue of Mycobacterium smegmatis) (natural protein)
